Measurements as given in patent US8609353B2, “Diagnostics and methods for removal and detection of interferents” (Systagenix Wound Management (US), Inc., priority 2007, dated 2013).
Primed or numbered codes have the meaning given here. * marks the point of attachment. Dabcyl″ = label, CN(C)c1ccc(/N=N/c2ccc(C(=O)*)cc2)cc1

Tests used:
[1] = target: T1, papain (Carica papaya, UniProt P00784); assay: PAIN1 FRET assay with papain-containing ointment ACCUZYME; format: biochemical; conditions: 10 μl of 120 mg/ml ACCUZYME, over one hour
T1 construct: purchased DPT Laboratories ACCUZYME
T1 sequence (P00784 134-345): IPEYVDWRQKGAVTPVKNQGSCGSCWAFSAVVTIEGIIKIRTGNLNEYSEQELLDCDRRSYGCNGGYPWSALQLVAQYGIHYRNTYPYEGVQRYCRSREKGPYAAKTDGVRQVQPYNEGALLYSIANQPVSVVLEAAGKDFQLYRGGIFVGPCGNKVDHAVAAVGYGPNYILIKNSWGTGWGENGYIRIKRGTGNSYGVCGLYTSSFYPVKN
Experimental: (§1) PAIN1 was designed from a high throughput screen. The peptide was tested in the FRET format with the fluorescent dye Edans attached to one end of the peptide and the quencher Dabcyl attached to the other end of the peptide. The sequence of the PAIN1 peptide used for this assay was NH2-E(Edans) PMPPLCTSMK(Dabcyl)-COOH (SEQ ID NO: 10). Cleavage of the peptide substrate by papain will produce a fluorescent signal. The peptide was tested using 5 μl of a 5 mg/ml solution with 10 μl of overnight grown bacterial culture or with 10 μl of 120 mg/ml ACCUZYME®, a papain-containing debriding ointment (DPT Laboratories), in 100 μl total volume. The bacteria cultures tested were Pseudomonas aeruginosa (PA14), Streptococcus pyogenes (grown in BHI and TSB media), E. coli, Enterococcus faecalis, and Serratia marcesens. The relative fluorescence is shown over one hour. […] In particular, the bacteria that appear to cross-react the most with PAIN1 were Pseudomonas aeruginosa and Streptococcus pyogenes.

[2] = test system: Pseudomonas aeruginosa (PA14); assay: PAIN1 FRET assay with overnight grown bacterial culture; format: biochemical; conditions: 10 μl overnight grown culture, over one hour
Experimental: as §1

[3] = test system: Streptococcus pyogenes; assay: as above; format: biochemical; conditions: 10 μl overnight grown culture, over one hour
Experimental: as §1

[4] = target: T2, elastase (Homo sapiens, UniProt P08246); assay: HE1-Affigel bead HRP release spin through assay with elastase; format: biochemical; conditions: 5 μg/ml elastase, 5 minutes; ABTS substrate over 5 minutes
T2 sequence (P08246 30-267): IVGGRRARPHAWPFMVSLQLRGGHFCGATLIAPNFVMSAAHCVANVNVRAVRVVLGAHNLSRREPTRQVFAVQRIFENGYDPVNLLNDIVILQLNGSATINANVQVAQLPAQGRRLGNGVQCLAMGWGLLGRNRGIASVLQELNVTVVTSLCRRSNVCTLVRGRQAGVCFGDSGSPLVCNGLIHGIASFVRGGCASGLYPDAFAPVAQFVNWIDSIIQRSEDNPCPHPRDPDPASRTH
Experimental: The peptide was tested for activity by conjugating one end to Affigel 10 beads (BioRad) and the other end to HRP reporter enzyme. The sequence of the HE1 peptide used for this assay was H2N-PFPQANYITYC-OH) (SEQ ID NO: 9). The activity was measured by detecting the release of HRP from the beads in a spin through assay. Testing was performed with 20 μl of a 1:10 dilution of HE1-Affigel beads reacted with 5 μg/ml elastase in 200 μl total volume for 5 minutes.

[5] = test system: bacterial proteases; assay: HE1 specificity versus bacterial proteases; format: biochemical
Experimental: (§2) Specificity was tested with 20 μl of a 1:10 dilution of the Affigel beads reacted with 100 μl media control or overnight grown culture of Pseudomonas aeruginosa, Streplococcus pyogenes, Escherichia coli, and Enterococcus faecalis in 200 μl total volume, as described above. The samples were spun down and a 20 μl aliquot measured in 500 μl total volume ABTS over 5 minutes.

[6] = test system: Pseudomonas aeruginosa; assay: HE1-Affigel bead HRP release specificity test with overnight grown culture; format: biochemical; conditions: 100 μl overnight grown culture; ABTS over 5 minutes
Experimental: as §2

[7] = target: T3, human neutrophil elastase (Homo sapiens, UniProt P08246); assay: FRET protease assay of bacterial peptide substrates with human neutrophil elastase (cross-reactivity); format: biochemical
T3 sequence (P08246 30-267): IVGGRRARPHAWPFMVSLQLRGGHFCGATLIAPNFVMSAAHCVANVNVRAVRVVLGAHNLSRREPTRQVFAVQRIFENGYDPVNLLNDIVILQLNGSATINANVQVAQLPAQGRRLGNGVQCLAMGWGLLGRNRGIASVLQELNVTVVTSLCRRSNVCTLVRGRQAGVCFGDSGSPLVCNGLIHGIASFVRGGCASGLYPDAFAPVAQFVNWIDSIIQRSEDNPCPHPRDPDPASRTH
Experimental: Based on the concentration of elastase from human wound fluid, it was determined whether this amount of elastase (0-50 μg/ml) would cause false positives in a protease assay using fluorescence resonance energy transfer (FRET) with peptides that are specific substrates for bacteria (FIGS. 3A-3C). Broad spectrum pathogen peptides such as CPI2 (peptide sequence EGAMFLEAIPMSIPK (referred to herein as SEQ ID NO: 3)) (that reacts with Staphylococcus aureus, Proteus mirabilis, Pseudomonas aeruginosa, Enterococcus faecalis, and Streptococcus pyogenes) were studied. Specific peptides for Pseudomonas aeruginosa (E8 (peptide sequence […] (referred to herein as SEQ ID NO: 4)) and G6 (peptide sequence EAAHQSALQSAK (referred to herein as SEQ ID NO: 5))), Staphylococcus aureus (SAP2 (peptide sequence […] (referred to herein as SEQ ID NO: 6)), Escherichia coli (T2 (peptide sequence EVSRRRRRGGK (referred to herein as SEQ ID NO: 7)) and T3 (peptide sequence KKASEVSRRRRRGGK (referred to herein as SEQ ID NO: 8)) were also studied. The […] were tested with three concentrations of human neutrophil elastase. The peptide substrates were tested in the FRET format with the fluorescent dye Edans attached to one end of the peptide and the quencher Dabcyl attached to the other end of the peptide. In this FRET assay format, amino acids are added to the terminals of the peptides to introduce the FRET assay dye. For example, an “E” is added to the N terminal and a “K” is added to the C terminal. For example, the “E” can be (E-EDANS) and the “K” can be (K-Dabcyl). Cleavage of the peptide substrate by human neutrophil elastase will produce a fluorescent signal.

[8] = target: T4, T2 (peptide sequence EVSRRRRRGGK)
T4 chain: EVSRRRRRGGK

[9] = target: T5, G6 (peptide sequence EAAHQSALQSAK)
T5 chain: EAAHQSALQSAK

[10] = target: T6, E8 (peptide sequence EQADALHDQASALK)
T6 chain: EQADALHDQASALK

[11] = target: T7, CPI2 (peptide sequence EGAMFLEAIPMSIPK)
T7 chain: EGAMFLEAIPMSIPK

[12] = target: T8, SAP2 (peptide sequence ETKVEENEAIQK)
T8 chain: ETKVEENEAIQK

[13] = target: T9, T3 (peptide sequence KKASEVSRRRRRGGK)
T9 chain: KKASEVSRRRRRGGK

[14] = target: T10, PAIN1 peptide (NH2-E(Edans) PMPPLCTSMK(Dabcyl)-COOH)
T10 chain: PMPPLCTSMK

NH2-E(Edans) PMPPLCTSMK(Dabcyl)-COOH ({E(Edans)}-PMPPLCTSMK(Dabcyl″)-OH) [PAIN1]
relative fluorescence response [1]: high response
relative fluorescence response [2]: lower but significant responses
relative fluorescence response [3]: lower but significant responses

H2N-PFPQANYITYC-OH (H-PFPQANYITYC-OH) [HE1]
HRP release signal at 405 nm [4]: clear signal
cross-reaction with bacterial proteases [5]: not cross react
HRP release signal at 405 nm [6]: very minor increase

EQADALHDQASALK (Pseudomonas aeruginosa E8-related peptide)
cross-reactivity with elastase (fluorescent signal) ([7]; 50 μg/ml of elastase, FIG. 3C): cross-reacted

EGAMFLEAIPMSIPK (CPI2-related peptide)
cross-reactivity with elastase (fluorescent signal) ([7]; 50 μg/ml of elastase, FIG. 3C): cross-reacted
cross-reactivity with elastase (fluorescent signal) ([7]; Five μg/ml of elastase, FIG. 3B): small response

B1: human neutrophil elastase (protein)
chain: IVGGRRARPHAWPFMVSLQLRGGHFCGATLIAPNFVMSAAHCVANVNVRAVRVVLGAHNLSRREPTRQVFAVQRIFENGYDPVNLLNDIVILQLNGSATINANVQVAQLPAQGRRLGNGVQCLAMGWGLLGRNRGIASVLQELNVTVVTSLCRRSNVCTLVRGRQAGVCFGDSGSPLVCNGLIHGIASFVRGGCASGLYPDAFAPVAQFVNWIDSIIQ
FRET peptide cleavage (fluorescent signal), 500 ng/ml elastase [8]: no signal on any of the peptides when tested with 500 ng/ml of elastase
FRET peptide cleavage (fluorescent signal), 500 ng/ml elastase [9]: no signal on any of the peptides when tested with 500 ng/ml of elastase
FRET peptide cleavage (fluorescent signal), 500 ng/ml elastase [10]: no signal on any of the peptides when tested with 500 ng/ml of elastase
FRET peptide cleavage (fluorescent signal), 50 ug/ml elastase [10]: 50 µg/ml of elastase cross-reacted with both peptides CPI2 and E8
FRET peptide cleavage (fluorescent signal), 500 ng/ml elastase [11]: no signal on any of the peptides when tested with 500 ng/ml of elastase
FRET peptide cleavage (fluorescent signal), 5 ug/ml elastase [11]: Five µg/ml of elastase cross-reacted with the broad spectrum peptide CPI2 (small response)
FRET peptide cleavage (fluorescent signal), 50 ug/ml elastase [11]: 50 µg/ml of elastase cross-reacted with both peptides CPI2 and E8
FRET peptide cleavage (fluorescent signal), 500 ng/ml elastase [12]: no signal on any of the peptides when tested with 500 ng/ml of elastase
FRET peptide cleavage (fluorescent signal), 500 ng/ml elastase [13]: no signal on any of the peptides when tested with 500 ng/ml of elastase

B2: papain (in ACCUZYME, a papain-containing debriding ointment, DPT Laboratories) (protein)
chain: IPEYVDWRQKGAVTPVKNQGSCGSCWAFSAVVTIEGIIKIRTGNLNEYSEQELLDCDRRSYGCNGGYPWSALQLVAQYGIHYRNTYPYEGVQRYCRSREKGPYAAKTDGVRQVQPYNEGALLYSIANQPVSVVLEAAGKDFQLYRGGIFVGPCGNKVDHAVAAVGYGPNYILIKNSWGTGWGENGYIRIKRGTGNSYGVCGLYTSSFYPVKN
FRET peptide cleavage (relative fluorescence over one hour), 10 ul of 120 mg/ml ACCUZYME [14]: A high response was seen with papain ointment
